The source of these data is US20090269356, “Complement Binding Aptamers and Anti-C5 Agents Useful in the Treatment of Ocular Disorders” (published 2009).

One data set deals with C5a des Arg (Homo sapiens, UniProt P01031 P01031:678-750). The experiment in a line: filter; printed >>3 uM; PBS, 1 mM MgCl2, BSA, tRNA, 25 or 37 C. To be noted: tags: Complement Technologies A145.6; label: 5'-32P; stem-loop. How it is done:
(§1) The specificity of ARC186 (SEQ ID NO: 4) for C5 was also assessed in nitrocellulose filtration assays by comparison with complement components both upstream and downstream from C5 in the complement cascade. Purified human proteins and protein complexes were purchased from Complement Technologies (Iyler, Tex.) including: C1q (cat. # A099.18; 2.3 μM), C3 (cat. # A113c.8; 27 μM, C5 (cat. # A120.14; 5.4 μM), C5a des Arg (cat. # A145.6; 60 μM), sC5b-9 (cat. # A127.6; 1 μM), factor B (cat. # A135.12; 11 μM) and factor H (cat #A137.13P; 6.8 μM). Binding reactions were established by performing serial dilutions of protein in PBS plus 1 mM MgCl₂, 0.02 mg (mL BSA and 0.002 mg/mL tRNA, incubating for 14 hours at 25° C. or 37° C., and then applied to the nitrocellulose filtration apparatus as described above. Dissociation constants KD were determined from semi-log plots of % nitrocellulose binding versus [C5] by a fit of the data to the equation: % nitrocellulose binding=amplitude×[C5]/(KD+[C5]).

Another data set concerns the target complement C1q (Homo sapiens, UniProt P02745;P02746;P02747 P02745:23-245,P02746:28-253,P02747:29-245). The experiment in a line: filter; PBS, 1 mM MgCl2, BSA, tRNA. The following applies: tags: Complement Technologies A099.18; chain copies: 6; label: 5'-32P; stem-loop. How it is done:
as §1

The next data set concerns the target sC5b-9 complex (Homo sapiens, UniProt P01031;P01031;P13671;P10643;P07357;P07358;P07360;P02748;P04004 …). The experiment in a line: filter; PBS, 1 mM MgCl2, BSA, tRNA, 25 or 37 C. The following applies: tags: Complement Technologies A127.6; label: 5'-32P; stem-loop. The procedure:
as §1

For data set [1], the target named is T1, complement C5 in human serum/blood (Homo sapiens, UniProt P01031). The data set is described as follows: inhibition; CH50 hemolysis, 0.2% human serum, 37 C. To be noted: protein: extract; label: 5'-32P; stem-loop. From the text: The CH50 test measures the ability of the complement system in a serum test sample to lyse 50% of cells in a standardized suspension of antibody-coated sheep erythrocytes. A solution of 0.2% human serum was mixed with antibody-coated sheep erythrocytes (Diamedix EZ Complement CH50 Kit, Diamedix Corp., Miami, Fla.) in the presence or absence of various anti-C5 aptamers. The assay was run according to the kit protocol in veronal-buffered saline containing calcium, magnesium and 1% gelatin (GVB⁺⁺ complement buffer) and incubated for 30 minutes at 37° C. After incubation, the samples were centrifuged to pellet intact erythrocytes. The optical density at 412 nm (OD₄₁₂) of the supernatant was read to quantify the release of soluble hemoglobin, which is proportional to the extent of hemolysis (Green et al., (1995) Chem. Biol. 2:683-95). To verify that the aptamers blocked C5 activation, some hemolysis supernatants were analyzed for the presence of C5a and C5b-9 by ELISA (C5b-9 ELISA kit, Quidel, San Diego, Calif.; C5a ELISA kit, BD Biosciences, San Diego, Calif.) following the ELISA kit protocols.

In data set [2] the target is T2, complement C5 (full length) (Homo sapiens, UniProt P01031). The data set is described as follows: filter; PBS, 1 mM MgCl2, 23 C, 4 h; 0.6 nM at 37 C; kinetic estimate 0.07 nM (koff 0.013 /min, kon 0.18 /nM/min). The following applies: tags: Quidel / Complement Technologies A120.14 / Advanced Research Technologies; label: 5'-32P; stem-loop. The procedure: The binding reactions were analyzed by nitrocellulose filtration using a Minifold I dot-blot, 96-well vacuum filtration manifold (Schleicher & Schuell, Keene, N.H.). A three-layer filtration medium was used, consisting (from top to bottom) of Protran nitrocellolose (Schleicher & Schuell), Hybond-P nylon (Amersham Biosciences, Piscataway, N.J.) and GB002 gel blot paper (Schleicher & Schuell). The nitrocellulose layer, which selectively binds protein over nucleic acid, preferentially retained the anti-C5 aptamer in complex with a protein ligand, while non-complexed anti-C5 aptamer passed through the nitrocellulose and adhered to the nylon. The gel blot paper was included simply as a supporting medium for the other filters. Following filtration, the filter layers were separated, dried and exposed on a phosphor screen (Amersham Biosciences) and quantified using a Storm 860 Phosphorimager® blot imaging system (Amersham Biosciences).
To analyze the association reaction, the equilibration rate constant (keq) for the formation of C5·ARC186 was measured in the presence of varying concentrations of C5 protein (1-5 nM). Complex formation was initiated by mixing together C5 protein and radiolabeled ARC186 in PBS containing 1 mM MgCl₂ at room temperature (23° C.), and stopped by nitrocellulose filtration partitioning. […]

Another data set has as its target complement C3 (Homo sapiens, UniProt P01024;P01024 P01024:23-667,P01024:672-1663). The experiment in a line: filter; non-activated C3 essentially does not bind. To be noted: tags: Complement Technologies A113c.8; label: 5'-32P; stem-loop. The procedure: as §1
Data set [3] concerns the target T2, complement C5 (full length). The experiment in a line: filter; dot blot; 20% plateau; listing entry for SEQ 81 differs in length, printed sequence used. The following applies: tags: Quidel / Complement Technologies A120.14 / Advanced Research Technologies. The procedure: (§2) The selection progress was monitored using a sandwich filter binding (dot blot) assay. The 5′-³²P-labeled pool RNA (trace concentration) was incubated with C5, 1×DPBS plus 0.1 mg/mL tRNA and 0.1 mg/mL salmon sperm DNA, for 30 minutes at room temperature, and then applied to a nitrocellulose and nylon filter sandwich in a dot blot apparatus (Schleicher and Schuell). The percentage of pool RNA bound to the nitrocellulose was calculated and monitored approximately every 3 rounds with a single point screen (+/−300 nM C5). Pool Kd measurements were measured using a titration of protein and the dot blot apparatus as described above.
Six constructs based on ARC913 (SEQ ID NO: 75) were transcribed, gel purified, and tested in dot blots for binding to C5.

Data set [4] addresses T1, complement C5 in human serum/blood. The data set is described as follows: inhibition; hemolysis, 0.2% human serum, 25 C. The following applies: protein: extract. How it is done:
Hemolysis Assay: The effect of ARC913 (SEQ ID NO: 75) on the classical pathway of the complement system was analyzed using a hemolysis assay previously described, compared to both ARC186 (SEQ ID NO: 4) (Anti-C5 aptamer, positive control) and unselected dRmY pool (negative control). In the assay of hemolytic inhibition, a solution of 0.2% whole human serum was mixed with antibody-coated sheep erythrocytes (Diamedix EZ Complement CH50 Test, Diamedix Corporation, Miami, Fla.) in the presence of titrated ARC913 (SEQ ID NO: 75). The assay was run in veronal-buffered saline containing calcium, magnesium and 1% gelatin (GVB⁺⁺ complement buffer) and incubated for 1 hr at 25° C. After incubation the samples were centrifuged. The optical density at 415 nm (OD₄₁₅) of the supernatant was read. The inhibition of hemolysis activity is expressed as % hemolysis activity compared to control. The IC₅₀ of the aptamer was calculated to be about 30 nM.

Data set [5] has as its target T2, complement C5 (full length). The data set is described as follows: filter; dot blot; 20% plateau. To be noted: tags: Quidel / Complement Technologies A120.14 / Advanced Research Technologies. The procedure:
as §2
Sequence Information: 45 clones from each pool were sequenced. R10 full length pool was dominated by one single clone ARC913 (SEQ ID NO: 75) which made up 24% of the pool, 2 sets of duplicates and single sequences made up the remainder. The R10 trypsinized pool contained 8 copies of the same sequence ARC913 (SEQ ID NO: 75), but the pool was dominated by another sequence (AMX221.A7; 46%).

T2 sequence (P01031 whole entry): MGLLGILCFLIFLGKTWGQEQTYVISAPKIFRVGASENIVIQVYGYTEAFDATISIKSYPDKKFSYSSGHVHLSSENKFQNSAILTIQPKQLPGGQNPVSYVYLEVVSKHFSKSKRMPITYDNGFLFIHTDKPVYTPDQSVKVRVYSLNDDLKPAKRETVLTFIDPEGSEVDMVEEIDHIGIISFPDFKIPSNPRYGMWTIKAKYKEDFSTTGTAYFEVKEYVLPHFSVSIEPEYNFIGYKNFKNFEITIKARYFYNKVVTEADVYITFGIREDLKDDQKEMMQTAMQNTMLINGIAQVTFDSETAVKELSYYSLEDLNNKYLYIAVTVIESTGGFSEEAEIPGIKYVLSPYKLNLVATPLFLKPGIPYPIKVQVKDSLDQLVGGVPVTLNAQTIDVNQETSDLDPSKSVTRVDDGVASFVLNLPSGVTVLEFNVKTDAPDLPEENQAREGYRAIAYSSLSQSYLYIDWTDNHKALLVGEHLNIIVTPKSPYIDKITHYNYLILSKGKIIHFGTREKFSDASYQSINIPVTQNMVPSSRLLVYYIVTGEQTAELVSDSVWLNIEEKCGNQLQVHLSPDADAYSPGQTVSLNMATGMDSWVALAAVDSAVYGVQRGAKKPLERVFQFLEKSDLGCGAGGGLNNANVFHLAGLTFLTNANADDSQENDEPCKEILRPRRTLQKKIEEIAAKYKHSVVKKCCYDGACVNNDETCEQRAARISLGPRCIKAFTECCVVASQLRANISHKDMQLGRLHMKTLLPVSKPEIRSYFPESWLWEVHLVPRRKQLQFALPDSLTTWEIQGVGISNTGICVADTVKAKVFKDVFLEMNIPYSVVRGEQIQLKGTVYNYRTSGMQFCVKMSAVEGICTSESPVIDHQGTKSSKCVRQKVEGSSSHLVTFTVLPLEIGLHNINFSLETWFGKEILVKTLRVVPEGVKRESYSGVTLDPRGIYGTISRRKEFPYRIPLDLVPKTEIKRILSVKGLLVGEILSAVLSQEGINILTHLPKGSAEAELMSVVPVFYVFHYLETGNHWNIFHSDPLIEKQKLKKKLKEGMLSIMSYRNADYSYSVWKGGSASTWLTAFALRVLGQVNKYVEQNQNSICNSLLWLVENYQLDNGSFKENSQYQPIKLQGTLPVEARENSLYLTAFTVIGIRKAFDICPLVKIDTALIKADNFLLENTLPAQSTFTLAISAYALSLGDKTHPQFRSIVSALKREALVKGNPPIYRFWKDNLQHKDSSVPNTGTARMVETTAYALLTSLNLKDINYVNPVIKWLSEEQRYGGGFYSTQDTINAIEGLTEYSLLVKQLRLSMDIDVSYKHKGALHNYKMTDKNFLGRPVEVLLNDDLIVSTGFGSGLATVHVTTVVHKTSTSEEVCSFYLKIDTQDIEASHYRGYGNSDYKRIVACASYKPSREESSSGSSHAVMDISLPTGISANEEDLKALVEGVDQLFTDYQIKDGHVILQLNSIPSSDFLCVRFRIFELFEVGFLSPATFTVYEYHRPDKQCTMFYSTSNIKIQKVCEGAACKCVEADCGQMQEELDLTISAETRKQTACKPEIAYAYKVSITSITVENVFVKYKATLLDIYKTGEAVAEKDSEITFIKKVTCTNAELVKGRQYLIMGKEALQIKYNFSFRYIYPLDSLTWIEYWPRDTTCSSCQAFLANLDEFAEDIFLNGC
T1 sequence (P01031 whole entry): as above
C5a des Arg, sequence (P01031 678-750, one chain of several): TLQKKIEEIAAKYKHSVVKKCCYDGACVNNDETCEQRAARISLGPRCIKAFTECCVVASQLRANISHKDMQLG
complement C1q, sequence (P02745 23-245, chain 1 of 3): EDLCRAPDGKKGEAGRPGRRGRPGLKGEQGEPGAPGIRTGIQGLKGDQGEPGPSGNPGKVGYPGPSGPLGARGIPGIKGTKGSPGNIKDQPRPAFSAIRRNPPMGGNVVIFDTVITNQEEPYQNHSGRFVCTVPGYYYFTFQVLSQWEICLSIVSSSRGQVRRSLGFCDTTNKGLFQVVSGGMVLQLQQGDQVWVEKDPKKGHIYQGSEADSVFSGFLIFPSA
complement C1q, sequence (P02746 28-253, chain 2 of 3): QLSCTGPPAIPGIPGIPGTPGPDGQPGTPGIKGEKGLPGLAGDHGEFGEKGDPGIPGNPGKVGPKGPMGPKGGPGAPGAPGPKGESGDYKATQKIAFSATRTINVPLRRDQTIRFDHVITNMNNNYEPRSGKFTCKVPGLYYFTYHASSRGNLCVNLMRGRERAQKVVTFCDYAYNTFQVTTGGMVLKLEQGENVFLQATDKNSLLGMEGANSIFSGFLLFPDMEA
complement C1q, sequence (P02747 29-245, chain 3 of 3): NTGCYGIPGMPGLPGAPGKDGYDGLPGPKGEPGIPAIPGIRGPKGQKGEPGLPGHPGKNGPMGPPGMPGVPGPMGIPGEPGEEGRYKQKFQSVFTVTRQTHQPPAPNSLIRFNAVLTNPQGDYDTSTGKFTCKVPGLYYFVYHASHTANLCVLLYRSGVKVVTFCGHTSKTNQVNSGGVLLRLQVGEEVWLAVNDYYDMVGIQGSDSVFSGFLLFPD
complement C3, sequence (P01024 23-667, chain 1 of 2): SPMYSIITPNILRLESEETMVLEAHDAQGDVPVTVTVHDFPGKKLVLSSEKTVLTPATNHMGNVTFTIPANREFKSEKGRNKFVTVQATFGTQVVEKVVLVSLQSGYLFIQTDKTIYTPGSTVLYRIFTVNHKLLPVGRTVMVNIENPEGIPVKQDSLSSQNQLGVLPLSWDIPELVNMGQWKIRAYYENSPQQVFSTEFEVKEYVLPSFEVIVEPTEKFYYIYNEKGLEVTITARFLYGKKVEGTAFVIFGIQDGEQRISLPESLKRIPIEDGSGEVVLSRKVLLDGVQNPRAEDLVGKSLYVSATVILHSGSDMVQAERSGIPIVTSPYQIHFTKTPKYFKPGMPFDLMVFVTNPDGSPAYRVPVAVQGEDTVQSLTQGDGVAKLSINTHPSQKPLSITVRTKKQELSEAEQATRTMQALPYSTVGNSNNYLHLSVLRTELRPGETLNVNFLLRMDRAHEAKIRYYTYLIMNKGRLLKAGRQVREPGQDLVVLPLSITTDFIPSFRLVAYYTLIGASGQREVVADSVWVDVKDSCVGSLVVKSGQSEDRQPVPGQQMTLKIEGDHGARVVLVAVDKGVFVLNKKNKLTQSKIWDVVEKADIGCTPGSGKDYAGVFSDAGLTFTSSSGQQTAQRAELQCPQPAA
complement C3, sequence (P01024 672-1663, chain 2 of 2): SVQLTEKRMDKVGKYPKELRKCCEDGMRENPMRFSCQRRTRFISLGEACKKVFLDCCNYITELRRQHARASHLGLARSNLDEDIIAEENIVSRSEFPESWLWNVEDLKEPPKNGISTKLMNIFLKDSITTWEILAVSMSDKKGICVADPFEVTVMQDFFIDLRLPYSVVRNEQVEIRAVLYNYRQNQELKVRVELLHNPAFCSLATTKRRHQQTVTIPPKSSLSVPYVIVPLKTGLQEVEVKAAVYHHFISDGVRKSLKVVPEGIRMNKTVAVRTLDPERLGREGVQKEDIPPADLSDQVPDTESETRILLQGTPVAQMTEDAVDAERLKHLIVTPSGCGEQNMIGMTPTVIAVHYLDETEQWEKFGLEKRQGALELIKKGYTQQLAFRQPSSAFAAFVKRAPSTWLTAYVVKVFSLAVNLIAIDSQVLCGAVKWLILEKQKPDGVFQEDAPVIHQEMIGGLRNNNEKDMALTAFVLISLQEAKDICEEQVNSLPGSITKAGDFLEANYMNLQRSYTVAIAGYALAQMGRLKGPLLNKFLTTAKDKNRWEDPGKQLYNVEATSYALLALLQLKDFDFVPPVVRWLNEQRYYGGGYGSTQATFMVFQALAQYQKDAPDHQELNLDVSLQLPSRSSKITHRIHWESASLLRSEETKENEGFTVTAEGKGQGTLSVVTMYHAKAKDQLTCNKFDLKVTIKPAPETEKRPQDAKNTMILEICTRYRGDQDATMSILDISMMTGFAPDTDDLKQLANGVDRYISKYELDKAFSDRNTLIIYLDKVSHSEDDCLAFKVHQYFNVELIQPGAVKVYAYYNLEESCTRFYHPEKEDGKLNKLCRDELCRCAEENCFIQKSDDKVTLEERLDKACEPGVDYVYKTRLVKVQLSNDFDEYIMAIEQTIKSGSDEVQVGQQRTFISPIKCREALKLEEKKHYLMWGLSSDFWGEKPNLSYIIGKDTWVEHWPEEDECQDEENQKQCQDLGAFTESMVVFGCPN

Turning to CGCCGCGGUCUCAGGCGCUGAGUCUGAGUUUACCUGCG (ssRNA, 2'-F all C and U; 2'-OMe purines except three 2'-OH purines; 3' inverted dT) [ARC186], the Kd in the data set with C5a des Arg is above 3000 nM; in the data set with complement C1q it was above 300 nM; in the data set with sC5b-9 complex it was above 200 nM; in data set [2], 0.08 nM. Also, in [1], 0.5 nM corresponded to half-maximal inhibition (IC50). The binding result with complement C3 is recorded as “no binding”.

CGUUCUACCUUGGUUUGGCACAGGCAUACAUACGCAGGGGUCGAUCG (mixed, dRmY: A,G deoxy; C,U 2'-OMe) [ARC954]: the Kd in [3] is 130 nM.

B1: ARC913 (mixed)
RNA: GGGAGAGGAGAGAACGUUCUACCUUGGUUUGGCACAGGCAUACAUACGCAGGGGUCGAUCGAUCGAUCAUCGAUG
modifications: dRmY: A,G deoxy; C,U 2'-OMe
B1 had an IC50 in [4] of around 30 nM. The same molecule gave a Kd in data set [5] of around 140 nM.
